Laboratory results from PMC10958042.

B1: ATGL (PNPLA2, patatin-like phospholipase domain-containing protein 2), human, full length / perilipin-5, mouse (mPlin5) (parent)
chain 1: MFPREKTWNISFAGCGFLGVYYVGVASCLREHAPFLVANATHIYGASAGALTATALVTGVCLGEAGAKFIEVSKEARKRFLGPLHPSFNLVKIIRSFLLKVLPADSHEHASGRLGISLTRVSDGENVIISHFNSKDELIQANVCSGFIPVYCGLIPPSLQGVRYVDGGISDNLPLYELKNTITVSPFSGESDICPQDSSTNIHELRVTNTSIQFNLRNLYRLSKALFPPEPLVLREMCKQGYRDGLRFLQRNGLLNRPNPLLALPPARPHGPEDKDQAVESAQAEDYSQLPGEDHILEHLPARLNEALLEACVEPTDLLTTLSNMLPVRLATAMMVPYTLPLESALSFTIRLLEWLPDVPEDIRWMKEQTGSICQYLVMRAKRKLGRHLPSRLPEQVELRRVQSLPSVPLSCAAYREALPGWMRNNLSLGDALAKWEECQRQLLLGLFCTNVAFPPEALRMRAPADPAPAPADPASPQHQLAGPAPLLSTPAPEARPVIGALGL
chain 2: MDQRGEDTTLAPHSRMSGDQTAQDPGSSLGELDQQNVVNRVVALPLVKATCTAVSSAYNSAKDRHPLLGSACRLAEHCVCSVTTCALDHAQPLLEHLQPQLATVNDLACRGLDKLEEKLPFLQQPSDMVVTSAKDTVAKSVTGMVDLAQRGRRWSGELRRSMSQAMDMVLGKSEKLVDRFLPMTEAELAVLAAEAEGPEVGTVEEQRQQQGYFVRLGSLSARLRHLAYEHSLGKLRQSKHRTQEMLAQLQETLELIQHMQRGASPSPTFHPPKTQELWGSWSPCLENGRSHSEVELETLALSRSLTLELQNAVDALAGCVRGLPPSAQAKVAEVQRSVDALQATFADAHCLGDVAPTALAEGRGSVARAHACVDEFLDLVLRAMPLPWLVGPFAPILVEQSEPLINLATCVDEVVGDPDPRWAHMDWPAQKRAWEAESADPGGQEAEPPRGQGKHTMMPELDF
B2: ATGL (PNPLA2, patatin-like phospholipase domain-containing protein 2), human, full length / G0S2 (G0/G1 switch protein 2), human (parent)
chain 1: B1 chain 1
chain 2: METVQELIPLAKEMMAQKRKGKMVKLYVLGSVLALFGVVLGLMETVCSPFTAARRLRDQEAAVAELQAALERQALQKQALQEKGKQQDTVLGGRALSNRQHAS

Variants of: B1
Test: LUMIER: Protein A-ATGL variant and firefly luciferase-partner co-expressed in HEK293T, lysates immunoprecipitated on IgG-coated plates, co-precipitated partner measured as luciferase luminescence
Conditions: with perilipin-5, mouse (mPlin5), transient co-transfection, IgG-coated LUMITRAC plates, 2 h at 4 °C, three PBS washes, Bright-Glo luciferase reagent, triplicates per assay, two …, parent: 0.15, not graded, scale: log2 fold change of co-immunoprecipitated luminescence relative to wild-type ATGL within each experiment

Row | Variant | screen value
1 | chain 1 Q396A | -0.512
2 | chain 1 L62K | -0.0604
3 | chain 1 L62A | -0.2
4 | chain 1 S106K | -0.363
5 | chain 1 F35A | -0.563
6 | chain 1 F35E | -0.313
7 | chain 1 R351L | -0.213
8 | chain 1 P156K | -0.669
9 | chain 1 I70K | -0.962
10 | chain 1 I70A | -1.37
11 | chain 1 P103K | -0.303
12 | chain 1 E314A | 0.0215
13 | chain 1 R329E | 0.105
14 | chain 1 N180L | -0.751
15 | chain 1 G59L | -0.841
16 | chain 1 S158E | -0.0461
17 | chain 1 S158A | -0.0252
18 | chain 1 Q140K | 0.011
19 | chain 1 Q140A | -0.185
20 | chain 1 V328A | -0.912

Same assay, conditions: with perilipin-5, mouse (mPlin5), transient co-transfection, IgG-coated LUMITRAC plates, 2 h at 4 °C, three PBS washes, Bright-Glo luciferase reagent, triplicates per assay, two …, parent: 0.46, not graded, scale: log2 fold change of co-immunoprecipitated luminescence relative to wild-type ATGL within each experiment

Row | Variant | screen value
21 | chain 1 Q396A | -0.623
22 | chain 1 L62K | 0.482
23 | chain 1 L62A | -0.0199
24 | chain 1 S106K | -0.539
25 | chain 1 F35A | -0.0452
26 | chain 1 F35E | -0.0352
27 | chain 1 R351L | -0.456
28 | chain 1 P156K | -1.08
29 | chain 1 I70K | -0.924
30 | chain 1 I70A | -0.876
31 | chain 1 P103K | -0.674
32 | chain 1 E314A | 0.421
33 | chain 1 R329E | -0.51
34 | chain 1 N180L | -0.918
35 | chain 1 G59L | -0.187
36 | chain 1 S158E | 0.172
37 | chain 1 S158A | 0.0162
38 | chain 1 Q140K | -0.224
39 | chain 1 Q140A | -0.0429
40 | chain 1 V328A | -0.985

Variants of: B2
Test: as above
Conditions: with G0S2 (G0/G1 switch protein 2), transient co-transfection, IgG-coated LUMITRAC plates, 2 h at 4 °C, three PBS washes, Bright-Glo luciferase reagent, triplicates per assay, two …, parent: 0.26, not graded, scale: log2 fold change of co-immunoprecipitated luminescence relative to wild-type ATGL within each experiment

Row | Variant | screen value
41 | chain 1 P103K | -0.0704
42 | chain 1 Y415A | -0.00445
43 | chain 1 P156K | -2.18
44 | chain 1 Q140A | 0.0979
45 | chain 1 Q140K | 0.195
46 | chain 1 G153K | -1.68
47 | chain 1 G153A | -1.31
48 | chain 1 R163K | 0.411
49 | chain 1 S106K | -0.922
50 | chain 1 L261E | -0.622
51 | chain 1 N39E | -2.73
52 | chain 1 H109E | 0.353

Same assay, conditions: with G0S2 (G0/G1 switch protein 2), transient co-transfection, IgG-coated LUMITRAC plates, 2 h at 4 °C, three PBS washes, Bright-Glo luciferase reagent, triplicates per assay, two …, parent: 0.56, not graded, scale: log2 fold change of co-immunoprecipitated luminescence relative to wild-type ATGL within each experiment

Row | Variant | screen value
53 | chain 1 P103K | 6.88e-05
54 | chain 1 Y415A | -0.27
55 | chain 1 P156K | -2.45
56 | chain 1 Q140A | 0.734
57 | chain 1 Q140K | -0.175
58 | chain 1 G153K | -2.61
59 | chain 1 G153A | -1.25
60 | chain 1 R163K | 0.335
61 | chain 1 S106K | -1.29
62 | chain 1 L261E | -0.673
63 | chain 1 N39E | -2.67
64 | chain 1 H109E | 0.0835
